The values below come from patent publication US20240307453A1, “METHODS FOR CONTROLLING BLEEDING IN A SUBJECT AFFLICTED WITH HERMANSKY PUDLAK SYNDROME USING PLATELET DERIVATIVE COMPOSITIONS” (Cellphire, Inc., priority 2023, published 2024).

One experiment deals with phosphatidylserine (PS). In words: FPH thrombin generation response to PS blocking by lactadherin. Type of experiment: biochemical, human. The method, then: Lactadherin (Haematologic Technologies, haemtech.com) was thawed per manufacturer instructions. FPHs were incubated with lactadherin at room temperature for 30 minutes at a concentration of 0, 25, 50, 100, and 200 μg/ml. 60 mM GPRP (BACHEM, bachem.com), thrombin (Sigma Aldrich, sigmaaldrich.com) and Octoplas (Octophrama, octopharma.com) were thawed according to manufacturer's guidelines. CLARIOstarPlus was used to perform TGA. A master mix of Octaplas, PRP reagent (Diagnostica Stago, Cat. No. 86196), and GPRP was prepared in a ratio of 14:3:1, respectively. Flu substrate and Fluo-buffer were combined according to manufacturer's guidelines to create FluCa (Diagnostica Stago, stago.com). Master mix and the FluCa solution were placed in the 37° C. air incubator with agitation for 45±5 minutes. […] 10 μl of each sample was dispensed into selected wells of a 96-well plate (Corning, corning.com) by reverse pipetting. TGA dilution buffer for thrombin was used in the thrombin standard ladder. CLARIOstarPlus injectors 1 and 2 were primed with master mix and FluCa solution with 250 μl, then the injector was placed in the active position. The CLARIOstarPlus TGA program was loaded with parameters for TGA assay with injectors set to add 90 μl of master mix and 40 μl of FluCa solution to each well. Plate was inserted to be read.

In experiment [1] the test system is phosphatidylserine (PS) surface on FPH. In words: T-TAS of FPH with increasing dose of lactadherin. The format is biochemical, human. As to conditions: highest lactadherin concentration (200 μg/mL), FPH 8×10^4 cells/μl. The method, then:
Cells were adjusted to 8×10^4 cells/μl by diluting in Octaplas and in preparations of either 0, 100, or 200 μg/mL of lactadherin and incubated for 30 minutes at room temperature before acquisition on T-TAS® (Zacros®, zacros.con.co.jp). Samples (480 μl) were normalized to the above counts and then transferred to microcentrifuge tubes containing 20 ul of CaCTI (CaCl2 and corn trypsin inhibitor). The CaCTI-treated samples were transferred to sample reservoirs on a T-TAS®. The sample reservoirs were then inserted into the AR microfluidic chips and acquired on the T-TAS. […] This confirms the necessity of retaining the negatively charged PS surface on FPH to generate thrombin.

B1: lactadherin: lactadherin used to block PS expression (protein, UniProt Q95114 19-427, looked up)
Lactadherin: ASGDFCDSSLCLHGGTCLLNEDRTPPFYCLCPEGFTGLLCNETEHGPCFPNPCHNDAECQVTDDSHRGDVFIQYICKCPLGYVGIHCETTCTSPLGMQTGAIADSQISASSMHLGFMGLQRWAPELARLHQTGIVNAWTSGNYDKNPWIQVNLMRKMWVTGVVTQGASRAGSAEYLKTFKVAYSTDGRQFQFIQVAGRSGDKIFIGNVNNSGLKINLFDTPLETQYVRLVPIICHRGCTLRFELLGCELNGCTEPLGLKDNTIPNKQITASSYYKTWGLSAFSWFPYYARLDNQGKFNAWTAQTNSASEWLQIDLGSQKRVTGIITQGARDFGHIQYVAAYRVAYGDDGVTWTEYKDPGASESKIFPGNMDNNSHKKNIFETPFQARFVRIQPVAWHNRITLRVELLGC
Turning to B1, the “thrombin generation of FPH” value in the experiment with phosphatidylserine (PS) (lactadherin 0, 25, 50, 100, 200 μg/ml) was “decreasing thrombin generation”. Further, the “maximum peak time of thrombin generation of FPH” value with phosphatidylserine (PS) (lactadherin 0-200 μg/ml, 1:64 dilution) is “increasing maximum peak time”. In experiment [1], the “effect on time to thrombus formation of FPH” value is on record as “approximately doubled the time to thrombus formation”.
